Assay results from US20230313217A1, “CHLOROPLAST TARGETING PEPTIDES AND CONJUGATES AND COMPOSITIONS THEREOF” (The Regents of the University of California, priority 2021, published 2023).
Ends that are not written are not given here.

Key:
[1] = system: chloroplast DNA; conditions: in vivo
Description: Chloroplasts were isolated from Arabidopsis leaves through a centrifugation gradient method in sucrose buffer.^1-3 Intact chloroplasts were isolated from leaves exposed to targeted and non-targeted CDs and pATV1-SWCNT, and buffer as control (10 mM TES pH 7.3) in 0.1% Silwet (v/v) for one day or five days. Following foliar spray with nanomaterials as explained above, 4 g of leaf tissue was collected from seven plants per treatment. Treated tissue was harvested, and ground in ice-cold 1× chilled sucrose buffer (pH 7.3, 28 mM Na2HPO4, 22 mM KH2PO4, 2.5 mM MgCl2, 400 mM sucrose, and 10 mM KCl). […]
DNA was extracted from plant leaf tissue and prepared using a Quick-DNA Plant/Seed DNA Miniprep kit (Zymo) in leaf samples treated with nanomaterials from one to five days. […] The DNA extraction was performed according to the manufacturer's instructions (zymoresearch.com) and concentrations were measured using a Nanodrop ND-1000 Spectrophotometer. […]
We determined the amount of oxidative DNA damage in plant leaves treated with nanomaterials for one day or five days using an enzyme-linked immunosorbent assay (ELISA) for 8-hydroxydeoxyguanosine (8-OHdG). The OxiSelect™ Oxidative DNA Damage ELISA Kit (Cat# STA-320, Cell Biolabs, inc.) quantifies the amount of 8-OHdG in isolated DNA samples from plant leaf tissue or isolated chloroplast suspensions. […]

[2] = system: Arabidopsis leaf mesophyll tissue; test: Plant cell viability assay (propidium iodide, percentage of dead cells); type: in vivo, Arabidopsis thaliana
Description: Impact of Targeted Nanomaterials on Plant Cell Viability. We investigated the viability of plant cells treated with increasing concentrations of targeted and nontargeted nanomaterials by measuring the percentage of dead plant cells. Arabidopsis leaf tissues were treated with targeted nanomaterials at 20, 100, 500 mg/L concentrations of TP-β-CDs or 2, 5, 10 mg/L of TP-pATV1-SWCNTs (FIG. 6, Table 1). Biocompatibility assays were performed up to 5 days of nanocarrier exposure before control Arabidopsis plants experienced the onset of leaf senescence marked by significant changes in chlorophyll levels (FIG. 15A). On day 7, significant differences in chlorophyll were detected in control Arabidopsis plants without nanomaterials. […] Therefore, subsequent experiments assessing the impact of targeted nanocarriers on plant cell and molecular biology were focused on biocompatible concentrations of 20 mg/L for TP-β-CDs and 2 mg/L for TP-pATV1-SWCNTs.
The percentage of intact cells was determined in Arabidopsis thaliana leaf tissues treated with TP-β-CD (20, 100, 500 mg/L) or TP-pATV1-SWCNT (2, 5, 10 mg/L) from one to five days. The nuclei of dead cells were stained with propidium iodide (PI) diluted to 1× concentration manufactures (Plant cell viability assay kit, PA0100, Sigma-Aldrich). Leaf discs were collected and incubated in PI dye for 15 minutes before confocal analysis. PI can enter cells with damaged membranes, and bind to double-stranded nucleic acids in non-viable cells. […] The total number of cells was determined using chloroplast autofluorescence to identify the leaf mesophyll cell boundaries. The leaf disc surface was washed with DI water to remove the residual dye and mounted on a microscope glass slide for imaging by laser scanning confocal microscope (TCS SP5, Leica Microsystems, Germany). Confocal imaging settings were as follows: ×40 wet objective (Leica Microsystems, Germany), propidium iodide dye excitation by a 543 nm laser (40% power), and PMT emission detection range set to 590-630 nm with Pinhole size set to 3 airy units.

[3] = system: Arabidopsis leaf tissues; test: Chlorophyll content index (SPAD) measurements; type: in vivo, Arabidopsis thaliana; conditions: 20 mg/L / 2 mg/L
Description: Chlorophyll content index (CCI) was measured in plants treated one and five days after treatment with nanomaterials and buffer control solution (10 mM TES, pH 7.0). Three-week-old Arabidopsis plants were exposed to β-CD, TP-β-CD, pATV1-SWCNT, or TP-pATV1-SWCNT. The CCI measurements were performed using chlorophyll meters (SPAD-502 plus, Konica Minolta, Tokyo, Japan; CCI readout resolution: 0.1) with each leaf being measured three times for CCI readouts. The onset of leaf senescence was determined by a marked decrease in chlorophyll levels (FIG. 14B). Experiments before 4-weeks of development are ideal to avoid plant senescence symptoms such as the increase in programmed cell death rates and decrease in chlorophyll content.^6-9

[4] = ζ potential of carbon nanostructures (Zetasizer); type: physicochemical
Description: The resulting PEI-SWCNT suspension was characterized by measuring the absorbance spectra on a UV-vis absorbance spectrophotometer (UV-2600, Shimadzu). The quality of the SWCNT suspension was determined by analyzing absorbance peaks at 632 nm. This measurement was performed with triplicates. The concentration of the PEI-SWCNT was determined spectrophotometrically using the absorption value at 632 nm and utilizing the equation (absorbance at 632 nm/extinction coefficient of 0.036)=mg L^−1. The final concentration obtained after purification ranged from 18 to 30 mg/L. The nanoparticle ζ potential was measured using a Zetasizer (Nano ZS, Malvern Instruments) in samples suspended in 10 mM TES buffer pH 7.0, with 0.1 mM NaCl. The hydrodynamic size was measured using Zetasizer (Nano ZS, Malvern Instruments) in samples suspended in a 10 mM TES buffer at pH 7.
Characterization of Nanomaterials. All nanomaterials were characterized by absorbance UV-vis spectroscopy (UV-2600 Shimadzu), hydrodynamic size (Nano S), and ζ potential (Nano ZS). The nanomaterial ζ potential and hydrodynamic diameter were measured in a 10 mM TES buffer (pH 7.0). The ζ potential measurements were performed in 0.1 mM NaCl to improve conductivity and analyzed by the Hückel approximation model.^111 CD fluorescence emission was collected using a fluorescence spectrometer (Horiba PTI QM-400). The stepwise synthesis of TP-β-CDs was analyzed using FTIR (Thermo Nicolet 6700 FTIR).

## TP-β-CD: carbon dots with β-cyclodextrin molecular baskets covalently bonded to chloroplast targeting peptide MASSMLSSATMVGGC (SEQ ID NO:5) (also: covalently bonded to carbon dots with β-cyclodextrin, site not given here)
[1]
  oxidative damage to isolated chloroplast DNA: not affected
[2]; Arabidopsis leaves, up to 5 days
  biocompatible concentration: 20 mg/L
[2]; TP-β-CD 20 mg/L, TP-pATV1-SWCNT 2 mg/L, summary
  percentage of dead cells: 6%
[2]; after 5 days of exposure, TP-β-CDs 20 mg/L, TP-pATV1-SWCNTs 2 mg/L
  percentage of dead cells compared to control plants: no significant differences
[2]; day 1, TP-β-CDs 20 mg/L, TP-pATV1-SWCNTs 2 mg/L
  plant dead cells relative to controls without nanoparticles: no significant differences
[2]; day 5, 100 mg/L
  percentage of dead cells: 20.0±4.8%
[2]; day 5, 500 mg/L
  percentage of dead cells: 23.4±4.8%
[3]; after 1 day of exposure
  chlorophyll content index (CCI): 35.5±1.4
[3]; after 5 days of exposure
  chlorophyll content index (CCI): 38.0±2.8
[4]; 10 mM TES buffer, pH 7.0
  ζ potential: −36.4±3.4 mV
[4]; higher in magnitude than
  ζ potential, magnitude: > 30 mV
